The record followed here is patent US20140329787A1, “PHYTOPHTHORA PHOSPHOLIPASE C” (Deakin University, priority 2011, published 2014).

“Also recorded” adds a separate entry of the source.

The test system of assay [1] is Phytophthora cinnamomi. The format is cell-based.
The test system of assay [2] is P. cinnamomi. Put plainly: Hyphal growth rate. The format is cell-based, Phytophthora cinnamomi. The settings on record: data not shown.
Assay [3] deals with P. sojae. The assay is described as follows: Hyphal growth rate. In kind it is cell-based, Phytophthora sojae. The settings on record: data not shown.
A short description of assay [4]: IP3 production from bovine brain phosphatidylinositols, ESI-MS. The format is biochemical. The note with it: CaCl2 or EDTA; three protein batches. How it is done: All mass spectra were produced using a 6210 MSDTOF mass spectrometer (Agilent Technologies, Australia) with the following conditions: drying gas, nitrogen ([…], 350° C.); nebulizer gas, nitrogen (16 psi); capillary voltage, ±4.0 kV; vaporizer temperature, 350° C.; and cone voltage, 60V, 5 μL.
To test for phospholipase C-like function of Alt-PLC, electrospray ionization mass spectrometry (ESI-MS) was utilized to identify of inositol(1,4,5)triphosphate (IP3) produced from reactions of Alt-PLC with lipids.
Three separate batches of protein (purified from independent transformations) were prepared and reacted with a mixture of phosphatidylinositols from bovine brain in the presence of CaCl2 or in the presence of EDTA. Chloroform phase-extraction was performed and the aqueous phase analysed for the presence of IP3 by ESI-MS.

A short description of assay [5]: In-solution hydrolysis of diC8-PI(4,5)P2, products by ESI-MS, TLC and NMR. In kind it is biochemical. The settings on record: with calcium, 60 min. How it is done: Five milligrams of lyophilised, synthetic 1,2-dioctanol-D-myo-phosphatidylinositol(4,5)bisphosphate (diC8-PI(4,5)P2: Echelon Biosciences, USA) was resuspended in 500 μl of 20 mM tris pH:8.0; to this, 100 μl of 1M CaCl2 and 400 μl of refolded Alt-PLC (0.1 mg/ml) in buffer A4 were added and the reaction allowed to proceed for 60 min. The reaction was stopped by phase separation with the addition of 3.75 ml of chloroform:methanol:12N HCl (2:4:0.1) and mixed thoroughly before the addition of 1.25 ml of chloroform. The solution was then vortexed for 30 sec before addition of 1.25 ml of ddH2O and then further vortexed for 30 seconds. The sample was then centrifuged at 1000 rpm for 10 min in a swinging bucket rotor at 4° C. The upper aqueous layer (containing inositols) and the lower chloroform layer (containing all lipids and phospholipids) were separately lyophilised in glass tubes and stored at −80° C. for further analysis. Further separation of polar and non-polar lipids, developed by the hydrolysis reaction, was performed by resuspending the lyophilised, chloroform layer in 1 mil 75% methanol and then adding 1 ml of n-hexane. […]
The unusual nature of this double hydrolysis led the Applicant to perform NMR on the MAG and acyl arg fractions as an additional confirmation of the ESI-MS results. […] NMR spectra were recorded at 400 MHz at −55° C. […]

The nature of assay [6]: Hydrolysis of PIPx, neutral-lipid TLC. In kind it is biochemical. The note with it: 0.2 mg/ml enzyme; listed as Alt-PLC1. As to the method:
Lipid samples of 0.5 μl were applied to silica 60 TLC plates and allowed to dry prior to the addition of more sample. Neutral lipids were applied to 10×20 cm pre-absorption zone-bearing silica-60 plates (Sigma-Aldrich, USA) and resolved in a solvent mixture of hexane:diethyl ether:acetic acid (9:1:0.5). Phospholipids were resolved on 20×20 cm silica-60 plates (Merck, Australia), without a pre-absorption zone, in a solvent mixture of chloroform:methanol:acetic acid:water (90:40:12:2). Lipids were detected by spraying the dried TLC plates with a solution of 0.05% rhodamine B (Sigma) in methanol and destaining was performed by repeated spraying with 5 M KOH. Lipid spots were then visualised following UV excitation at 312 nm.
Alt-PLC and Alt-PLC2 were refolded into buffer A4 at a concentration of 0.2 mg/ml and a hydrolysis reaction was performed using PIPx (mixed phosphatidylinositols, Sigma) as the substrate. The reaction was performed as described previously and the resultant neutral lipids were extracted by diethyl ether phase extraction. The samples were analysed by neutral-lipid thin-layer chromatography, on silica 60 plates with a pre-absorption zone; the mobile phase employed was hexane: diethyl ether: acetic acid (9:1:0.5).

The subject of assay [7] is E. coli. Put plainly: Growth curves of E. coli expressing Alt-PLC and truncations. The note with it: relative to E. coli not expressing Alt-PLC. The format is cell-based. As to the method:
An analysis of function of the Alt-PLC truncations was performed using growth curves of Alt-PLC expressing E. coli cells (FIG. 28).
Therefore, growth curves of E. coli expressing Alt-PLC and the truncations allow determination of Alt-PLC function in vivo.

For `COc1ccc2c(c1)CC[C@@H]1[C@@H]2CC[C@]2(C)[C@@H](NCCCCCCN3C(=O)C=CC3=O)CC[C@@H]12` [U-73122], the “PIP2 level and distribution in hyphae” value in assay [1] is given as “PIP2 increased; also recorded: PIP2 showed an almost uniform membrane distribution, indicating uncontrolled accumulation”. The hyphal growth rate entry in assay [2] and in assay [3] was “markedly reduces hyphal growth rate” in each case.

B1: Alt-PLC: Phytophthora sojae alternative phospholipase C, SEQ ID NO: 5; codon optimised, his-tagged, expressed in E. coli (protein, listed as Phytophthora sojae)
chain: MASGWRQKPRLDPWDPPSPPPLLEEAAPKPKPKTSRFSRRSTRAKSHARQQAQHVELEVEEHAEQRDRDKRRSLLASMFGERAQSRASRSSSDASALQSQTQTLVQREKAFRLVRHGSDPLLNDAFYATQVQVGNFVKMGWLTKQGHMWKSWKTRFFVLFSDGTFAYYKNKGRKKIKGCMQLNDGVVSVQHVDIRLADKAYVFQIEKGFYKLLCYCCSQFEAELWVAALRSVRRVAPPCYEMDLTATEEKAGSNAVTRHLNKIFITDKQIAKRLAEFKANTHDHSYAAIHNFIVELDDAIIDRHHLEFYQDAEIELLPGNELVRLIRRHVEDRVFIPLYAEAYASLETDKVKTRRSNLEQHLKVLKQKTQADFGISKDLSVCNWKQAISVVNMLDCVSLPTHKFEVILSAGKAIMELIAQYNGELFEVSDEMLTAIFRYVVTMSSLSDLPTLRALLKYGYQHHPASQNKANVVTAFLNAIKWVECFEAGDESYQFDSLALAGSRVSVSISTNDVGIQFTTDGNGRGAIVYNIRKQSQAALSAAIVPGLSLIAINHEPVIALEFAVKIDYSHRIEVDKSASYLGSQMPNSSWKMVDKDDHVSRSARPGSVDDLIRELVAGTEVDLVDVVSFVLFLDSFSSLNEVVDRLSAHVRNGVKSHGLIRLFIVVLLFRQSETKEADDLRDRFYSLISLNIDAKDKLVPLVEEYMSLYKEYFSLRGAGNYAVNYQAIPGMMSKVYGMESGFEPVSSGPFSAHLHRFVDAERWAEQCTLLTHAVFCKIPVRDFIPTGSKKKHSVEFTSIKRWFQHISAFVINAVLVQNTPEERAEVISFYLKLSLDAKKMMNEMQLLSDKGCREMNRLMRKTANPSMPYIGLYLQGFVGLNELPAFDKEGLVNANRLRRMGELAMEILHRQSVAYTLQHDEDVNKLLHVSLPYSSEESRYARSLELEPREADAIPLSDRGSYTLIDDDVDLENEVRESIGGDGTFGFRQWIRKQQVVHRNRSRSSVIALYEWV
modifications: His tag
notes: codon optimised, his-tagged, expressed in E. coli
Regarding B1, the “IP3 production (m/z 160.6)” value in assay [4] was “IP3 was produced in the Ca^2+-activated reactions, but was not produced in the presence of EDTA”. For the same molecule, the products of hydrolysis in assay [5] is 1-monacylglycerol, a free fatty acid (FFA) and inositol(1,4,5)triphosphate. Also, in assay [6], the “monoacylglycerol production / phospholipase C activity level in vitro” value was “detection of monoacylglycerol production; also recorded: higher activity level in vitro than Alt-PLC2”. The “growth of expressing E. coli (function in vivo)” value in assay [7] is listed as “characteristic reduced growth of the bacteria”.
